Assay results reported in the supplement of paper PMC10567573.

B1: RAB11A (parent)
chain: AVPTDEARAFAEKNGLSFIETSAL

Variants of: B1
Test: protein stability index of a GFP-peptide fusion (GPS, HEK-293T) (PSI 1-6); higher = more stable
Conditions: c terminus: a fixed tail appended
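Also: lentivirally expressed fusions sorted by FACS into six bins by GFP to DsRed ratio, PSI derived from sequencing read proportions per bin multiplied by bin number.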

Variant | protein stability index
AVPTDEARAFAERNGLSFIETSAL [K13R] | 2.52
AVPTDEARAFAEENGLSFIETSAL [K13E] | 2.81
AVPTDEARAFAEINGLSFIETSAL [K13I] | 2.09
AVPTDEARAFAEQNGLSFIETSAL [K13Q] | 2.67
AVPTDEARAFAEHNGLSFIETSAL [K13H] | 1.77
AVPTDEARAFAEFNGLSFIETSAL [K13F] | 2.24
AVPTDEARAFAENNGLSFIETSAL [K13N] | 2.43
AVPTDEARAFAELNGLSFIETSAL [K13L] | 2.17
AVPTDEARAFAEYNGLSFIETSAL [K13Y] | 2.49
AVPTDEARAFAESNGLSFIETSAL [K13S] | 2.9
AVPTDEARAFAEVNGLSFIETSAL [K13V] | 2.23
AVPTDEARAFAEPNGLSFIETSAL [K13P] | 2.28
AVPTDEARAFAEMNGLSFIETSAL [K13M] | 2.12
AVPTDEARAFAECNGLSFIETSAL [K13C] | 2.38
AVPTDEARAFAEWNGLSFIETSAL [K13W] | 4.07
AVPTDEARAFAEGNGLSFIETSAL [K13G] | 3.15
AVPTDEARAFAEDNGLSFIETSAL [K13D] | 3.88
AVPTDEARAFAEANGLSFIETSAL [K13A] | 2.57
AVPTDEARAFAETNGLSFIETSAL [K13T] | 2.18
AVPTDRARAFAEKNGLSFIETSAL [E6R] | 2.25
AVPTDNARAFAEKNGLSFIETSAL [E6N] | 2.24
AVPTDYARAFAEKNGLSFIETSAL [E6Y] | 1.88
AVPTDTARAFAEKNGLSFIETSAL [E6T] | 1.71
AVPTDSARAFAEKNGLSFIETSAL [E6S] | 2.09

Variant | protein stability index
AVPTDPARAFAEKNGLSFIETSAL [E6P] | 1.74
AVPTDWARAFAEKNGLSFIETSAL [E6W] | 2.07
AVPTDQARAFAEKNGLSFIETSAL [E6Q] | 2.52
AVPTDVARAFAEKNGLSFIETSAL [E6V] | 1.83
AVPTDEARAFAEKTGLSFIETSAL [N14T] | 2.39
AVPTDEARAFAEKGGLSFIETSAL [N14G] | 2.15
AVPTDEARAFAEKWGLSFIETSAL [N14W] | 1.74
AVPTDEARAFAEKYGLSFIETSAL [N14Y] | 2.17
AVPTDEARAFAEKLGLSFIETSAL [N14L] | 2.03
AVPTDEARAFAEKMGLSFIETSAL [N14M] | 1.92
AVPTDEARAFAEKDGLSFIETSAL [N14D] | 3.62
AVPTDEARAFAEKPGLSFIETSAL [N14P] | 2.44
AVPTDEARAFAEKRGLSFIETSAL [N14R] | 2.52
AVPTDEARAFAEKAGLSFIETSAL [N14A] | 1.96
AVPTDEARAFAEKHGLSFIETSAL [N14H] | 2.36
AVPTDEARAFAEKKGLSFIETSAL [N14K] | 2.46
AVPTDEARAFAEKFGLSFIETSAL [N14F] | 2.25
AVPTDEARAFAEKSGLSFIETSAL [N14S] | 2.95
AVPTDEARAFAEKIGLSFIETSAL [N14I] | 2.13
AVPTDEARAFAEKCGLSFIETSAL [N14C] | 1.71
AVPTDEARAFAEKVGLSFIETSAL [N14V] | 1.85
AVPTDEARAFAEKQGLSFIETSAL [N14Q] | 2.85
AVPTDEARAFAEKEGLSFIETSAL [N14E] | 3.54
AVPTDEARAFAEKNGASFIETSAL [L16A] | 4.51

Variant | protein stability index
AVPTDEARAFAEKNGESFIETSAL [L16E] | 4.73
AVPTDEARAFAEKNGFSFIETSAL [L16F] | 1.91
AVPTDEARAFAEKNGGSFIETSAL [L16G] | 4.35
AVPTDEARAFAEKNGHSFIETSAL [L16H] | 4.3
AVPTDEARAFAEKNGDSFIETSAL [L16D] | 4.87
AVPTDEARAFAEKNGKSFIETSAL [L16K] | 4.27
AVPTDEARAFAEKNGISFIETSAL [L16I] | 3.85
AVPTDEARAFAEKNGCSFIETSAL [L16C] | 3.66
AVPTDEADAFAEKNGLSFIETSAL [R8D] | 2.82
AVPTDEAGAFAEKNGLSFIETSAL [R8G] | 2.63
AVPTDEAQAFAEKNGLSFIETSAL [R8Q] | 2.66
AVPTDEAPAFAEKNGLSFIETSAL [R8P] | 1.86
AVPTDEASAFAEKNGLSFIETSAL [R8S] | 2.68
AVPTDEANAFAEKNGLSFIETSAL [R8N] | 2.64
AVPTDEAMAFAEKNGLSFIETSAL [R8M] | 2.4
AVPTDEACAFAEKNGLSFIETSAL [R8C] | 2.32
AVPTDEAVAFAEKNGLSFIETSAL [R8V] | 2.72
AVPTDEAFAFAEKNGLSFIETSAL [R8F] | 1.97
AVPTDEAWAFAEKNGLSFIETSAL [R8W] | 2.46
AVPTDEATAFAEKNGLSFIETSAL [R8T] | 2.84
AVPTDEAIAFAEKNGLSFIETSAL [R8I] | 2.59
AVPTDEAAAFAEKNGLSFIETSAL [R8A] | 2.64
AVPTDEALAFAEKNGLSFIETSAL [R8L] | 2.16
AVPTDEAHAFAEKNGLSFIETSAL [R8H] | 2.7

Variant | protein stability index
AVPTDEAYAFAEKNGLSFIETSAL [R8Y] | 1.99
AVPTDEAEAFAEKNGLSFIETSAL [R8E] | 3.25
AVPTDEAKAFAEKNGLSFIETSAL [R8K] | 2.61
AVPTDEARWFAEKNGLSFIETSAL [A9W] | 2.27
AVPTDEARCFAEKNGLSFIETSAL [A9C] | 1.82
AVPTDEARIFAEKNGLSFIETSAL [A9I] | 2.33
AVPTDEARPFAEKNGLSFIETSAL [A9P] | 2.08
AVPTDEARYFAEKNGLSFIETSAL [A9Y] | 2.11
AVPTDEARDFAEKNGLSFIETSAL [A9D] | 2.78
AVPTDEARNFAEKNGLSFIETSAL [A9N] | 2.46
AVPTDEAREFAEKNGLSFIETSAL [A9E] | 3.13
AVPTDEARTFAEKNGLSFIETSAL [A9T] | 2.96
AVPTDEARKFAEKNGLSFIETSAL [A9K] | 2.34
AVPTDEARLFAEKNGLSFIETSAL [A9L] | 2.45
AVPTDEARSFAEKNGLSFIETSAL [A9S] | 2.35
AVPTDEARGFAEKNGLSFIETSAL [A9G] | 2.57
AVPTDEARVFAEKNGLSFIETSAL [A9V] | 2.45
AVPTDEARRFAEKNGLSFIETSAL [A9R] | 1.96
AVPTDEARFFAEKNGLSFIETSAL [A9F] | 2.1
AVPTDEARQFAEKNGLSFIETSAL [A9Q] | 2.62
AVPTDEARHFAEKNGLSFIETSAL [A9H] | 1.97
AVPTDEARMFAEKNGLSFIETSAL [A9M] | 2.35
